Results on three molecules are retold here after article doi:10.1101/565937.

Common to all, as to experiment: EMSA
For orientation: A gel shift assay detects complexes by their altered migration in electrophoresis.

Series [1] concerns the target T1, HuR (UniProt Q15717 1-326).
For series [2], the target named is AUF1p37 (Homo sapiens, UniProt Q14103-4 1-287).
For series [3], the target named is T1, HuR. The source holds these as a separate data set.

T1 sequence (Q15717 whole entry): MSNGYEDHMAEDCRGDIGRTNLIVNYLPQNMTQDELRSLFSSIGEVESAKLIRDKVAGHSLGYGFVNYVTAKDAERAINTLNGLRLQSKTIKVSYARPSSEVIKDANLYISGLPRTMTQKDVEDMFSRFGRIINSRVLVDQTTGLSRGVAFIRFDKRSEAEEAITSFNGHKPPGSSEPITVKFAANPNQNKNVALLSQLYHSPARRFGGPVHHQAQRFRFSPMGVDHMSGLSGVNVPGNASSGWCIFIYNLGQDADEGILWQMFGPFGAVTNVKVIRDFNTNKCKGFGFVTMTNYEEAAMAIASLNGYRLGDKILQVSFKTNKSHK

AAAAAAAUUUUAAGAGCUGG (ssRNA) [Nrf2 3'-UTR Site 3]: the Kd was determined as 75 ± 20 nM in series [1] and 670 ± 82 nM in series [2].

Molecule AAAAACUUAUUUAUACUGUU (ssRNA) [Nrf2 3'-UTR Site 2] had an equilibrium dissociation constant (Kd) in series [2] of 25 ± 4 nM. In series [3], the binding result was “no binding”.

For the molecule GCUAGUUUUUUUGUACUAUU (ssRNA) [Nrf2 3'-UTR Site 1], the dissociation constant (Kd) was determined as 20 ± 5 nM in series [1] and 6 ± 2 nM in series [2].

The Kd is a measure of binding affinity in units of concentration. High values mean weaker binding, low ones tighter binding.
